According to US20100196934A1:
“And” between values parts separate entries of the source, which are not always exact repeats. Equal entries are not always repeated. Where two headings read alike, the source gives them in different places.

Legend:
[1] = molecular target: Deer recombinant PrP (deer); test: direct ELISA, coated denatured rPrP 1 ng/assay
[2] = molecular target: Sheep recombinant PrP (sheep); test: direct ELISA, coated denatured rPrP 1 ng/assay
[3] = molecular target: Bovine recombinant PrP (bovine); test: direct ELISA, coated denatured rPrP 1 ng/assay
[4] = molecular target: Mouse recombinant PrP (mouse); test: direct ELISA, coated denatured rPrP 1 ng/assay
[5] = molecular target: Human recombinant PrP (human); test: direct ELISA, coated denatured rPrP 1 ng/assay
[6] = molecular target: Deer recombinant PrP (deer); test: direct ELISA, coated denatured rPrP 0.1 ng/assay
[7] = molecular target: Sheep recombinant PrP (sheep); test: direct ELISA, coated denatured rPrP 0.1 ng/assay
[8] = molecular target: Bovine recombinant PrP (bovine); test: direct ELISA, coated denatured rPrP 0.1 ng/assay
[9] = molecular target: Mouse recombinant PrP (mouse); test: direct ELISA, coated denatured rPrP 0.1 ng/assay
[10] = molecular target: Human recombinant PrP (human); test: direct ELISA, coated denatured rPrP 0.1 ng/assay
Mouse BH PrP^Sc (mouse) [11] = test: direct ELISA, coated denatured mouse BH PrP^Sc 0.1 mg BH/assay
Mouse BH PrP^Sc (mouse) [12] = test: direct ELISA, coated denatured mouse BH PrP^Sc 1 mg BH/assay
[13] = molecular target: Human PrP^C (normal human plasma; normal human brain homogenate) (human)
[14] = molecular target: Human PrP^Sc of vCJD brain homogenate (vCJD MM, White strain) (human)
[15] = molecular target: Human PrP^Sc of vCJD brain homogenate (vCJD MM, White strain) (human); test: sandwich ELISA, capture SAF-32; vCJD human BH, PK 25 ug/mL, 4M GdnHCl-denatured
[16] = molecular target: Human PrP^C (normal human plasma; normal human brain homogenate) (human); test: sandwich ELISA, capture SAF-32; normal human BH, trypsin 25 ug/mL, un-denatured
[17] = molecular target: Human PrP^C (normal human plasma; normal human brain homogenate) (human); test: sandwich ELISA, capture SAF-32; normal human BH, PK 25 ug/mL, un-denatured
[18] = molecular target: Human PrP^Sc of vCJD brain homogenate (vCJD MM, White strain) (human); test: sandwich ELISA, capture SAF-32; vCJD human BH, PK 25 ug/mL, un-denatured
[19] = molecular target: Human PrP^Sc of vCJD brain homogenate (vCJD MM, White strain) (human); test: sandwich ELISA, capture SAF-32; vCJD human BH, trypsin 25 ug/mL, un-denatured
[20] = molecular target: Syrian hamster PrP^C (normal SHa brain homogenate) (Syrian hamster); test: sandwich ELISA, capture POM2; normal SHa BH, trypsin 25 ug/mL, GdnHCl-denatured
[21] = molecular target: Syrian hamster PrP^C (normal SHa brain homogenate) (Syrian hamster); test: sandwich ELISA, capture 3F4; normal SHa BH, trypsin 5 ug/mL, NaOH-denatured
[22] = molecular target: Syrian hamster PrP^C (normal SHa brain homogenate) (Syrian hamster); test: sandwich ELISA, capture 3F4; normal SHa BH, PK 20 ug/mL, NaOH-denatured
[23] = molecular target: Syrian hamster PrP^C (normal SHa brain homogenate) (Syrian hamster); test: sandwich ELISA, capture 3F4; normal SHa BH, PK 0 ug/mL, NaOH-denatured
[24] = molecular target: Syrian hamster PrP^C (normal SHa brain homogenate) (Syrian hamster); test: sandwich ELISA, capture 3F4; normal SHa BH, PK 100 ug/mL, NaOH-denatured
[25] = molecular target: Syrian hamster PrP^Sc (scrapie-infected SHa brain homogenate) (Syrian hamster); test: sandwich ELISA, capture 3F4; scrapie-infected SHa BH, PK 0 ug/mL, NaOH-denatured
[26] = molecular target: Syrian hamster PrP^Sc (scrapie-infected SHa brain homogenate) (Syrian hamster)
[27] = molecular target: Syrian hamster PrP^C (normal SHa brain homogenate) (Syrian hamster); test: sandwich ELISA, capture 3F4; normal SHa BH, trypsin 10 ug/mL, NaOH-denatured
[28] = molecular target: Syrian hamster PrP^C (normal SHa brain homogenate) (Syrian hamster); test: sandwich ELISA, capture 3F4; normal SHa BH, trypsin 0 ug/mL, NaOH-denatured
[29] = molecular target: Syrian hamster PrP^Sc (scrapie-infected SHa brain homogenate) (Syrian hamster); test: sandwich ELISA, capture 3F4; infectious SHa BH, PK 25 ug/mL, GdnHCl-denatured
[30] = molecular target: Syrian hamster PrP^C (normal SHa brain homogenate) (Syrian hamster); test: sandwich ELISA, capture 3F4; normal SHa BH, trypsin 50 ug/mL, NaOH-denatured
[31] = molecular target: Syrian hamster PrP^C (normal SHa brain homogenate) (Syrian hamster); test: sandwich ELISA, capture POM2; normal SHa BH, PK 25 ug/mL, GdnHCl-denatured
[32] = molecular target: Syrian hamster PrP^C (normal SHa brain homogenate) (Syrian hamster); test: sandwich ELISA, capture 3F4; normal SHa BH, trypsin 20 ug/mL, NaOH-denatured
[33] = molecular target: Syrian hamster PrP^C (normal SHa brain homogenate) (Syrian hamster); test: sandwich ELISA, capture 3F4; normal SHa BH, PK 50 ug/mL, NaOH-denatured
[34] = molecular target: Syrian hamster PrP^Sc (scrapie-infected SHa brain homogenate) (Syrian hamster); test: sandwich ELISA, capture POM2; infectious SHa BH, PK 25 ug/mL, GdnHCl-denatured
[35] = molecular target: Syrian hamster PrP^C (normal SHa brain homogenate) (Syrian hamster); test: sandwich ELISA, capture 3F4; normal SHa BH, PK 5 ug/mL, NaOH-denatured
[36] = molecular target: Syrian hamster PrP^C (normal SHa brain homogenate) (Syrian hamster); test: sandwich ELISA, capture 3F4; normal SHa BH, trypsin 25 ug/mL, GdnHCl-denatured
[37] = molecular target: Syrian hamster PrP^C (normal SHa brain homogenate) (Syrian hamster); test: sandwich ELISA, capture 3F4; normal SHa BH, PK 25 ug/mL, GdnHCl-denatured
[38] = molecular target: Syrian hamster PrP^C (normal SHa brain homogenate) (Syrian hamster); test: sandwich ELISA, capture 3F4; normal SHa BH, trypsin 100 ug/mL, NaOH-denatured
[39] = molecular target: Syrian hamster PrP^C (normal SHa brain homogenate) (Syrian hamster); test: sandwich ELISA, capture 3F4; normal SHa BH, PK 10 ug/mL, NaOH-denatured
[40] = molecular target: Syrian hamster PrP^Sc (scrapie-infected SHa brain homogenate) (Syrian hamster); test: sandwich ELISA, capture 3F4; scrapie-infected SHa BH, PK 5 ug/mL, NaOH-denatured

mAb 6H4 (antibody) showed an RLU [1] of 222 RLU, an RLU [2] of 160 RLU and an RLU [3] of 691 RLU. It also gave an RLU [4] of 332 RLU, an RLU [5] of 192 RLU and an RLU [6] of 92.4 RLU. The RLU [7] was 125 RLU, the RLU [8] was 89.1 RLU and the RLU [9] was 104 RLU. It also gave an RLU [10] of 72.7 RLU, an RLU (Mouse BH PrP^Sc (mouse) [11]) of 178 RLU and an RLU (Mouse BH PrP^Sc (mouse) [12]) of 610 RLU.
For HuM D18 (antibody), the RLU [1] was 121 RLU, the RLU [2] was 186 RLU and the RLU [3] was 132 RLU. For the same substance, the RLU [4] was 1770 RLU, the RLU [5] was 94.7 RLU and the RLU [6] was 134 RLU. The RLU [7] was 169 RLU, the RLU [8] was 109 RLU and the RLU [9] was 366 RLU. For the same substance, the RLU [10] was 77.5 RLU, the RLU (Mouse BH PrP^Sc (mouse) [11]) was 376 RLU and the RLU (Mouse BH PrP^Sc (mouse) [12]) was 2230 RLU.
In the case of Mouse anti Prion (SAF-53) (antibody), the RLU [1] is reported as 263 RLU, the RLU [2] is reported as 154 RLU and the RLU [3] is reported as 145 RLU. It also gave an RLU [4] of 612 RLU, an RLU [5] of 93.5 RLU and an RLU [6] of 144 RLU. The RLU [7] was 100 RLU, the RLU [8] was 76.6 RLU and the RLU [9] was 70.8 RLU. It also gave an RLU [10] of 85.2 RLU, an RLU (Mouse BH PrP^Sc (mouse) [11]) of 165 RLU and an RLU (Mouse BH PrP^Sc (mouse) [12]) of 667 RLU.
In the case of Mouse anti Prion (SAF-32) (antibody), the RLU [1] is reported as 2320 RLU, the RLU [2] is reported as 1440 RLU and the RLU [3] is reported as 2400 RLU. It also gave an RLU [4] of 73.3 RLU, an RLU [5] of 1570 RLU and an RLU [6] of 457 RLU. The RLU [7] was 294 RLU, the RLU [8] was 450 RLU and the RLU [9] was 97.6 RLU. The RLU [10] was 285 RLU, the RLU (Mouse BH PrP^Sc (mouse) [11]) was 176 RLU and the RLU (Mouse BH PrP^Sc (mouse) [12]) was 551 RLU.
With monoclonal antibody 3F4 the RLU [13] was 50.4 RLU and 18.1 RLU, the RLU [14] was 1650 RLU and the RLU [15] was 226 RLU. For the same substance, the RLU [16] was 6.1 RLU, the RLU [17] was 7.7 RLU and the RLU [18] was 10 RLU. It also gave an RLU [19] of 15.1 RLU.
Work on Mouse anti Prion (MAB5424) (antibody) yielded an RLU [1] of 118 RLU, an RLU [2] of 899 RLU and an RLU [3] of 827 RLU. It also gave an RLU [4] of 605 RLU, an RLU [5] of 67.6 RLU and an RLU [6] of 104 RLU. For the same substance, the RLU [7] was 214 RLU, the RLU [8] was 84.6 RLU and the RLU [9] was 90.1 RLU. It also gave an RLU [10] of 76.1 RLU, an RLU (Mouse BH PrP^Sc (mouse) [11]) of 167 RLU and an RLU (Mouse BH PrP^Sc (mouse) [12]) of 601 RLU.
For POM17 antibody, the RLU [20] was 14.6 RLU, the RLU [21] was 8.5 RLU and the RLU [22] was 5.5 RLU. The RLU [23] was 1680 RLU, the RLU [24] was 2.8 RLU and the RLU [25] was 3860 RLU. For the same substance, the RLU [26] was 254 RLU and 381 RLU, the RLU [27] was 4.5 RLU and the RLU [28] was 1660 RLU. The RLU [29] was 200 RLU, the RLU [30] was 2 RLU and the RLU [31] was 1.8 RLU. The RLU [32] was 2.8 RLU, the RLU [33] was 3.3 RLU and the RLU [34] was 68.4 RLU. For the same substance, the RLU [35] was 11.4 RLU, the RLU [36] was 2 RLU and the RLU [37] was 1.7 RLU. For the same substance, the RLU [38] was 2.6 RLU, the RLU [39] was 7.2 RLU and the RLU [40] was 2480 RLU.
